Results published in US20170369574A1.
Where “and” joins values, the source holds several entries; their conditions need not be identical. Equal entries are not always repeated.

B1: GB-H22(scFv) (scFv)
chain: HIDDDDKIIGGHEAKPHSRPYMAFLMIWDQKSLKRCGGFLIRDDFVLTAAHCWGSSINVTLGAHNIKEQEPTQQFIPVKRAIPHPAYNPKNFSNDIMLLQLERKAKRTRAVQPLRLPSNKAQVKPGQTCSVAGWGQTAPLGKHSHTLQEVKMTVQEDRKCESDLRHYYDSTIELCVGDPEIKKTSFKGDSGGPLVCNKVAQGIVSYGRNNGMPPRACTKVSSFVHWIKKTMKRYGSKLAEHEGDAAQPAMAQVQLVESGGGVVQPGRSLRLSCSSSGFIFSDNYMYWVRQAPGKGLEWVATISDGGSYTYYPDSVKGRFTISRDNSKNTLFLQMDSLRPEDTGVYFCARGYYRYEGAMDYWGQGTPVTVSSGGGGSGGGGSGGGGSDIQLTQSPSSLSASVGDRVTITCKSSQSVLYSSNQKNYLAWYQQKPGKAPKLLIYWASTRESGVPSRFSGSGSGTDFTFTISSLQPEDIATYYCHQYLSSWTFGQGTKLEIKAAAGPHHHHHH
B2: GBR201K-H22(scFv) (scFv)
chain: HIDDDDKIIGGHEAKPHSRPYMAFLMIWDQKSLKRCGGFLIRDDFVLTAAHCWGSSINVTLGAHNIKEQEPTQQFIPVKRAIPHPAYNPKNFSNDIMLLQLERKAKRTRAVQPLRLPSNKAQVKPGQTCSVAGWGQTAPLGKHSHTLQEVKMTVQEDRKCESDLRHYYDSTIELCVGDPEIKKTSFKGDSGGPLVCNKVAQGIVSYGKNNGMPPRACTKVSSFVHWIKKTMKRYAEHEGDAAQPAMAQVQLVESGGGVVQPGRSLRLSCSSSGFIFSDNYMYWVRQAPGKGLEWVATISDGGSYTYYPDSVKGRFTISRDNSKNTLFLQMDSLRPEDTGVYFCARGYYRYEGAMDYWGQGTPVTVSSGGGGSGGGGSGGGGSDIQLTQSPSSLSASVGDRVTITCKSSQSVLYSSNQKNYLAWYQQKPGKAPKLLIYWASTRESGVPSRFSGSGSGTDFTFTISSLQPEDIATYYCHQYLSSWTFGQGTKLEIKAAAGPHHHHHH

Target: CD64 (FcγRI) (human) (UniProt P12314)
Sequence of UniProt P12314 (P12314 16-374): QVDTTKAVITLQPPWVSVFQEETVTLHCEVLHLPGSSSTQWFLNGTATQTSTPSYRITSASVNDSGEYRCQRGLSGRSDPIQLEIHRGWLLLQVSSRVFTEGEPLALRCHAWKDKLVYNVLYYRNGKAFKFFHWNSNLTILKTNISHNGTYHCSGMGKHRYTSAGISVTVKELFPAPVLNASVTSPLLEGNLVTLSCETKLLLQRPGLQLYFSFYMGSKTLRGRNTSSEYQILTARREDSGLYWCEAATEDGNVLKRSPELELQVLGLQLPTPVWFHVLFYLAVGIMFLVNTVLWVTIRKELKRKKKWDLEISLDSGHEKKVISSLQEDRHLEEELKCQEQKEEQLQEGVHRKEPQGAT
Assay: cell-based or functional assay

Molecule	IC50/EC50, XTT growth inhibition, HL-60 cells	IC50/EC50, XTT growth inhibition, U937 cells [pM]	IC50/EC50, XTT growth inhibition, hM1φ
H22(scFv)-MAP	40 pM		
H22(scFv)-Ang	10000 pM	200	290 pM and 108 pM
B1			414 pM and 140 pM
B2	2400 pM and 5700 pM		
